Laboratory results as given in patent publication US20150216795A1 (SANOFI, priority 2012, published 2015).

Tests used:
[1] = Population pharmacokinetic analysis; type: in vivo, human
Text: There are no data available for patients with severe hepatic impairment.
There is no data available for patients with severe hepatic impairment (total bilirubin>3×ULN and any SGOT/AST).

[2] = test system: non-small cell lung cancer (NSCLC); conditions: added to docetaxel vs docetaxel plus placebo; cited from earlier work
[3] = test system: sexually mature cynomolgus monkeys; assay: 6-month repeat-dose toxicology study; type: in vivo, cynomolgus monkey
Experimental: Reversibility was observed within 18 weeks after cessation of treatment. Systemic exposure (AUC) with a 3 mg per kg per dose in monkeys was approximately 60% of the AUC in patients at the recommended dose.
Most ziv-aflibercept-related findings were noted from the lowest dose tested (3 mg per kg per dose) correlating to 60% of the AUC at the human recommended dose.

[4] = test system: patients with metastatic colorectal cancer (MCRC); assay: EFC10262 (VELOUR) randomized double-blind phase 3 study: efficacy (OS, PFS, response rate);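 note: Placebo-controlled comparison, both arms on FOLFIRI every 2 weeks until progression or intolerable toxicity, in patients progressing on or within 6 months after oxaliplatin-based combination chemotherapy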
Text: Each randomized patient was to be treated until disease progression, death, or unacceptable toxicity. […] The predefined statistical significance level for this final analysis was 0.0466 after adjusting the type I error spent for the two interim analyses using the O'Brien-Fleming spending function.
The study included one formal interim analysis, planned for the purpose of efficacy, when 561 death events (65% information time) had occurred. Upon request of the independent Data Monitoring Committee (DMC), an additional interim analysis of OS was performed to provide an early evaluation of the benefit-risk ratio, when 315 death events (36.5% information fraction) had occurred.
A total of approximately 863 deaths were required to detect 20% hazard rate reduction in OS with 90% power using the two-sided log rank test at an overall 0.0499 alpha level. The median survival times was expected to be 11 months for the control group. The overall alpha level was split between overall survival (0.0499) and progression-free survival as a secondary efficacy endpoint (0.0001).
Approximately 1200 patients (i.e. 600 patients per treatment group) were planned to be randomized. Treatment assignment was stratified according to prior therapy with bevacizumab (yes or no), and ECOG performance status (PS) (0 vs 1 vs 2).
The enrolment started in November 2007 and was completed in March 2010. A total of 1226 patients were randomized. […] Treatment arms were evenly balanced for demographics, disease characteristics and prior anti-cancer treatments, including prior exposition to bevacizumab.
Immediately after, patients received irinotecan, 5-FU and leucovorin (FOLFIRI regimen). This treatment was repeated every 2 weeks.
Study 1 was a randomized, double-blind, placebo-controlled study in patients with metastatic colorectal cancer (mCRC) who are resistant to or have progressed during or within 6 months of receiving oxaliplatin-based combination chemotherapy, with or without prior bevacizumab. A total of 1226 patients were randomized (1:1) to receive either ZALTRAP (N=612; 4 mg per kg as a 1 hour intravenous infusion on day 1) or placebo (N=614), in combination with 5-fluorouracil plus irinotecan [FOLFIRI: irinotecan 180 mg per m2 IV infusion over 90 minutes and leucovorin (dl racemic) 400 mg per m^2 intravenous infusion over 2 hours at the same time on day 1 using a Y-line, followed by 5-FU 400 mg per m^2 intravenous bolus, followed by 5-FU 2400 mg per m^2 continuous intravenous infusion over 46-hours]. The treatment cycles on both arms were repeated every 2 weeks. Patients were treated until disease progression or unacceptable toxicity. The primary efficacy endpoint was overall survival. Treatment assignment was stratified by the ECOG performance status (0 versus 1 versus 2) and according to prior therapy with bevacizumab (yes or no).

human VEGF-B = target: T1, human VEGF-B (Homo sapiens, UniProt P49765); assay: Binding, equilibrium dissociation constant
T1 sequence (P49765 31-129 limits assumed): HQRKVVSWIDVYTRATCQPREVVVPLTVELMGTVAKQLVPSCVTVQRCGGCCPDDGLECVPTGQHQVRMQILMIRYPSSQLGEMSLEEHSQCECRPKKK
Text: (§1) This inhibition can result in decreased neovascularization and decreased vascular permeability.

human PIGF-2 = target: T2, human PIGF-2 (Homo sapiens, UniProt P49763); assay: Binding, equilibrium dissociation constant
T2 sequence (P49763 19-170 isoform P49763-3 limits assumed): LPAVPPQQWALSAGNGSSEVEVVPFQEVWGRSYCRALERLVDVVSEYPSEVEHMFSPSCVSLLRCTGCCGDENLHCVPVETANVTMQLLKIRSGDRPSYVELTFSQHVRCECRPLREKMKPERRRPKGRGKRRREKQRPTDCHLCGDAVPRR
Text: as §1

[5] = test system: sexually immature cynomolgus monkeys; assay: 3-month intravenous toxicology study; type: in vivo, cynomolgus monkey; conditions: after a post-dosing recovery period
[6] = test system: colorectal, pancreatic, and lung cancer populations; assay: Three Phase 3 placebo-controlled clinical studies, GI perforation; type: in vivo, human; conditions: across three Phase 3 placebo-controlled studies
Text: Gastrointestinal (GI) perforation including fatal GI perforation can occur in patients receiving ZALTRAP. Across three Phase 3 placebo-controlled clinical studies (colorectal, pancreatic, and lung cancer populations), the incidence of GI perforation (all grades) was 0.8% for patients treated with ZALTRAP and 0.3% for patients treated with placebo. Grade 3-4 GI perforation events occurred in 0.8% of patients treated with ZALTRAP and 0.2% of patients treated with placebo.

patients with cancer = assay: Pooled safety across completed studies (RPLS, TMA); type: in vivo, human
Text: Severe proteinuria, nephrotic syndrome, and thrombotic microangiopathy (TMA) occurred more frequently in patients treated with ZALTRAP. In patients with mCRC, proteinuria was reported in 62% patients treated with ZALTRAP/FOLFIRI compared to 41% patients treated with placebo/FOLFIRI. Grade 3-4 proteinuria occurred in 8% of patients treated with ZALTRAP/FOLFIRI to 1% of patients treated with placebo/FOLFIRI [see Adverse Reactions (6.1)]. Nephrotic syndrome occurred in 2 patients (0.5%) treated with ZALTRAP/FOLFIRI compared to none of the patients treated with placebo/FOLFIRI. TMA was reported in 3 of 2258 patients with cancer enrolled across completed studies.
RPLS (also known as posterior reversible encephalopathy syndrome) was reported in 0.5% of 3795 patients treated with ZALTRAP monotherapy or in combination with chemotherapy.

[7] = Clinical pharmacokinetics, plasma free ziv-aflibercept by ELISA; type: in vivo, human
[8] = test system: patients with metastatic colorectal cancer (MCRC)
Text: Each randomized patient was to be treated until disease progression, death, or unacceptable toxicity.
Treatment arms were evenly balanced for demographics, disease characteristics and prior anti-cancer treatments, including prior exposition to bevacizumab.
Patients received a median of 9 cycles of ZALTRAP/FOLFIRI or 8 cycles of placebo/FOLFIRI.

endothelial cells = assay: Endothelial cell proliferation in animals; type: in vivo
Text: as §1

rabbits = assay: Excisional and incisional skin wound healing models; type: in vivo, rabbit; conditions: for wound healing: repeated administration
[9] = test system: xenotransplanted colon tumors; assay: Xenotransplanted colon tumor growth; type: in vivo; conditions: mice
Text: as §1

[10] = test system: patients with various cancers; assay: Immunogenicity, anti-product antibody (APA) across 15 studies; type: in vivo, human
Text: As with all therapeutic proteins, there is a potential for immunogenicity. In patients with various cancers across 15 studies, 1.4% (41/2862) of patients tested positive for anti-product antibody (APA) at baseline. […] Among patients who tested positive for APA and had sufficient samples for further testing, neutralizing antibodies were detected in 17 of 48 ziv-aflibercept-treated patients and in 2 of 40 patients receiving placebo.
Immunogenicity data are highly dependent on the sensitivity and specificity of the assay. Additionally, the observed incidence of antibody positivity in an assay may be influenced by several factors, including sample handling, timing of sample collection, concomitant medications, and underlying disease. For these reasons, comparison of the incidence of antibodies to ZALTRAP with the incidence of antibodies to other products may be misleading.

pregnant rabbits = assay: Embryo-fetal toxicity study; type: in vivo, rabbit; conditions: every 3 days during organogenesis, intravenous, all doses tested
Text: Adverse embryo-fetal effects included increased incidences of postimplantation losses and external (including anasarca, umbilical hernia, diaphragmatic hernia and gastroschisis, cleft palate, ectrodactyly, and atresia), visceral (in the heart, great vessels, and arteries), and skeletal fetal malformations (including fused vertebrae, sternebrae, and ribs; supernumerary arches and ribs, and incomplete ossification). […] The incidence and severity of fetal anomalies increased with increasing dose.

[11] = test system: previously treated patients with metastatic colorectal cancer; conditions: pre-treated patients with MCRC; cited from earlier work
[12] = test system: patients with solid tumors; assay: Cardiac electrophysiology, QTc study; type: in vivo, human; conditions: 6 mg/kg intravenous every three weeks; 87 patients; large = greater than 20 ms
Experimental: The effect of 6 mg/kg intravenous ZALTRAP every three weeks on QTc interval was evaluated in 87 patients with solid tumors in a randomized, placebo-controlled study. […] However, a small increase in the mean QTc interval (i.e., less than 10 ms) cannot be excluded due to limitations of the study design.

[13] = includes death due to disease progression

For “ziv-aflibercept: recombinant fusion protein of VEGF-binding portions of human VEGF Receptors 1 and 2 fused to the Fc portion of human IgG1 (SEQ ID NO:1)”, the “increase in systemic exposure in patients weighing >=100 kg” value ([1]; compared to patients weighing 50 to 100 kg) was 29%, the “pharmacokinetic drug-drug interactions with irinotecan/SN-38 or 5-FU” value ([1]; cross-study comparisons and population pharmacokinetic analyses) was “No clinically important pharmacokinetic drug-drug interactions” and the “exposure in patients with mild and moderate hepatic impairment vs normal hepatic function” value ([1]; data from 1507 patients) was “similar”. The “exposure in patients with mild, moderate, and severe renal impairment vs normal renal function” value ([1]; data from 1507 patients) was “similar”, the “effect of age, race, and gender on the exposure of free ziv-aflibercept” value ([1]; in vivo) was “did not have a clinically important effect” and the “primary endpoint of improvement in overall survival” value [2] was “did not meet the pre-specified criteria”. The “reproductive function and fertility” value ([3]; all doses tested including 3 mg per kg) was “impaired reproductive function and fertility”, the “reversibility of reproductive findings after cessation of treatment” value ([3]; monkeys) was no more than 18 weeks and the repeat-dose toxicity findings ([3]; weekly/every two weeks intravenous for up to 6 months, from 3 mg per kg per dose) was “changes in the bone”. For the same substance, the “estimated probability of being alive” value ([4]; 12 months from randomization) was 56.1%, the “estimated probability of being alive” value ([4]; 18 months from randomization) was 38.5% and the “Median overall survival (95.34% CI)” value ([4]; ITT population, all patients, cutoff 7 FEB. 2011) was 13.50 months. The “Median PFS (99.99% CI)” value ([4]; ITT population, all patients, tumor assessment by the IRC, cutoff 6 MAY 2010) was 6.90 months, the “Overall Response: Responders (Complete response or Partial response), %” value ([4]; by IRC, evaluable patient population N = 531) was 19.8% and the “reduction of risk of death” value ([4]; compared to placebo, from hazard ratio) was 18.3%. The “PFS HR (99.99% CI)” value ([4]; liver metastasis only group) was 0.547, the “PFS HR (99.99% CI)” value ([4]; no liver metastasis, or other metastases group) was 0.839 and the Kd (human VEGF-B) was 1.92 pM. For the same substance, the Kd (human PIGF-2) was 0.039 nM, the “reversibility of skeletal and nasal cavity effects” value [5] was “not reversible” and the “Grade 3-4 GI perforation events” value [6] was 0.8%. For the same substance, the “incidence of GI perforation (all grades)” value [6] was 0.8%, the “RPLS (posterior reversible encephalopathy syndrome)” value (patients with cancer; 3795 patients, monotherapy or in combination with chemotherapy) was 0.5% and the “thrombotic microangiopathy (TMA)” value (patients with cancer; patients with cancer enrolled across completed studies) was 3 of 2258. For the same substance, the “dose linearity of free ziv-aflibercept concentrations” value ([7]; dose range of 2-9 mg/kg) was “linear pharmacokinetics”, the “Steady state concentrations of free ziv-aflibercept reached” value ([7]; human, in vivo) was “by the second dose” and the “Grade 3 GI fistula formation” value ([8]; 2 patients) was 0.3%. The “Patients with any TEAE leading to death” value ([8]; Safety population N = 611) was 37 (6.1%) number (%) of patients, the “dose reduced and/or omitted” value ([8]; Study 1) was 17 % of patients and the “occurrence of grade 3-4 treatment emergent adverse events” value ([8]; in vivo) was 83.5%. For the same substance, the “premature treatment discontinuation due to adverse events” value ([8]; in vivo) was 19.5%, the “rate of permanent discontinuation of study treatment due to adverse events” value ([8]; in vivo) was 26.8% and the “patients with adverse events that led to death after 30 days of last dosing” value [8, 13] was 12. For the same substance, the “patients with adverse events that led to death within 30 days of last dosing” value [8, 13] was 28, the “proliferation of endothelial cells” value (endothelial cells) was “inhibit the proliferation of endothelial cells” and the “full-thickness excisional and incisional skin wound model findings” value (rabbits; rabbit, in vivo) was “reduced fibrous response, neovascularization, epidermal hyperplasia/re-epithelialization, and tensile strength”. For the same substance, the wound healing (rabbits) was “delay in wound healing”, the wound healing (rabbits; listed as ZALTRAP) was “impairs wound healing” and the “growth of xenotransplanted colon tumors” value [9] was “inhibited the growth”. The neutralizing antibodies detected ([10]; among APA-positive patients with sufficient samples) was 17 of 48, the “incidence of APA development” value ([10]; intravenous, 53/1687 patients) was 3.1% and the “mean free ziv-aflibercept trough concentrations in patients with positive neutralizing antibodies” value ([10]; versus the overall population) was “lower”. For the same substance, the embryo-fetal toxicity (pregnant rabbits) was “produced embryo-fetal toxicity”, the embryo-fetal toxicity (pregnant rabbits; listed as ZALTRAP) was “embryotoxic and teratogenic” and the tolerability [11] was “well tolerated”. For the same substance, the “change in the mean QT interval from baseline (Fridericia correction)” value [12] was “No large changes in the mean QT interval”.
